In the supplement of paper PMC10567573:
± gives the standard deviation.

Test: protein stability index of a GFP-peptide fusion (GPS, HEK-293T) (PSI 1-6); higher = more stable
[1] = treatment: DMSO, c terminus: a fixed tail appended
[2] = treatment: MLN4924 1 uM, 8 h, c terminus: a fixed tail appended
[3] = treatment: DMSO, c terminus: native
[4] = treatment: MLN4924 1 uM, 8 h, c terminus: native
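Also: 24-mer peptide tiles fused after GFP, lentivirally expressed, FACS-sorted into six equal bins by GFP/DsRed ratio, decoded by Illumina sequencing, PSI is the read-weighted mean bin number.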

Sequence | protein stability index [1] | protein stability index [2] | protein stability index [3] | protein stability index [4]
QQSDLGQYVTFLRSFSDKQKISLL [ALG2] | 2.22 ± 0.24 | 2.29 ± 0.23 |  | 
FNKDLVQDCGFEHLVPVIEMWADQ [CEP70] | 2.45 ± 0.45 | 2.65 ± 0.61 |  | 
RHLERKAWVANFERPRMNANSLLA [CRY1] | 2.49 ± 0.27 | 3.1 ± 0.15 |  | 
SPEVLTPQLSPGSGTPQAGTPSPS [RTN2] | 5.39 ± 0.31 | 5.45 ± 0.2 |  | 
GLANGLQLLCPWAPLSGPQALMLP [VENTX] | 2.01 ± 0.31 | 2.1 ± 0.36 |  | 
FEDPRDAEDAVYGRDGYDYDGYRL [SRSF1] | 4.73 ± 0.18 | 4.8 ± 0.14 |  | 
EVLRMCVAVKKKLQLYFWKDREFH [VPS39] | 2.49 ± 0.34 | 2.55 ± 0.34 |  | 
AWTLINLSFAAKQRELHSHVTNAM [DHCR7] | 3.12 ± 0.34 | 3.05 ± 0.24 |  | 
GKPPTAHLDRTSVSSLSEVEEVDM [ELOA2] | 5.51 ± 0.11 | 5.41 ± 0.29 |  | 
FKAVLDGLDVLLAQEVRPRRWKLQ [PRAME] | 2.25 ± 0.19 | 2.41 ± 0.35 |  | 
VLKYFSHYMEENLMDGGDLPSVTD [PLK2] | 2.75 ± 0.52 | 2.67 ± 0.64 |  | 
LKKDKKKEEKEDEISLEDLIERER [ZC3H15] | 5.47 ± 0.41 | 5.51 ± 0.13 |  | 
LGRMGKHEQALFIYVHILKDTRMA [VPS39] | 2.89 ± 0.71 | 2.98 ± 0.78 |  | 
PGEVVPSGESGLRRRGSDPASGEV [TMEM40] | 5.52 ± 0.32 | 5.43 ± 0.23 |  | 
GNSISISALQSLLQHLIGLSNLTH [PRAME] | 2.54 ± 0.036 | 2.62 ± 0.41 |  | 
SLSKKYRQDAKYLNMRSTYAKLAA [SEC22B] | 2.56 ± 0.24 | 2.62 ± 0.073 |  | 
MANQEAAIQAFLDKCSAPKIWRTP [IQUB] | 3.11 ± 0.14 | 3.16 ± 0.34 |  | 
MPSETLWEIAKAEVEKRGINGSEG [DYNC2LI1] | 4.88 ± 0.15 | 5.1 ± 0.1 |  | 
YRHVMLPKDIAKLVPKTHLMSESE [CKS1B] | 3.75 ± 0.32 | 3.85 ± 0.23 |  | 
GAGAGAPGGGRLLLSTSLDAKDEL [INTS3] | 5.04 ± 0.27 | 5.08 ± 0.068 |  | 
DPDEEHLKKSSQVPRTEAPAPASS [PDLIM7] | 5.39 ± 0.17 | 5.5 ± 0.25 |  | 
DPVVNGERSGCALTDAVAPGNKGR [TCF25] | 5.21 ± 0.21 | 5.32 ± 0.21 |  | 
KQKGSEENLDEAREQKEKSPPDQP [ADD1] | 5.68 ± 0.26 | 5.78 ± 0.15 |  | 

Sequence | protein stability index [1] | protein stability index [2] | protein stability index [3] | protein stability index [4]
VYSVSVDQKERCIIVRTTNKKYYK [DPCD] | 2.14 ± 0.14 | 2.21 ± 0.38 |  | 
LTLSGIKEDNSLLNQGFLQAKPEK [MYBL2] | 4.53 ± 0.39 | 4.61 ± 0.099 |  | 
LRVISDEGGWWKAISLSTGRESYI [SLA] |  | 1.88 ± 0.22 |  | 
EQLRREKIDLENTLEQEQEALVNR [CCDC6] | 5.2 ± 0.27 | 5.42 ± 0.1 |  | 
PYDLHLRSQSLTMQDELNAVFHN [NEUROD6] |  |  | 3.44 ± 0.22 | 3.71 ± 0.15
HHVEREKDHSSSRPSSPRPQKASP [BTBD10] | 5.36 ± 0.28 | 5.54 ± 0.14 |  | 
LCNLGKERFLELAPDFVGDILWEH [ETS2] | 2.46 ± 0.26 | 2.28 ± 0.61 |  | 
HSHPPEIKDQGGAGEGLVRSANGF [MAP2] | 4.7 ± 0.14 | 4.76 ± 0.2 |  | 
SVGTYIIDLLTFLTGQKAVKVHGL [GFOD1] | 3.23 ± 0.42 | 3.32 ± 0.54 |  | 
IIYMGSFMLMLLVLGIQVKCFHEI [CDS1] | 3.57 ± 0.85 | 3.27 ± 0.34 |  | 
GASFTQKGNLLRHIKLHSGEKPFK [IKZF1] | 3.77 ± 0.23 | 3.72 ± 0.28 |  | 
QQLLPPFPSLHQSLPQNQCYMATT [EHMT1] | 3.29 ± 0.13 | 3.16 ± 0.17 |  | 
EATSHYIIELLASDAGSPSLHKHL [PCDHGC5] | 2.08 ± 0.064 | 2.12 ± 0.11 |  | 
LANLSRTQLLHLGLTQGLIERLK [KLHDC10] |  |  | 2.38 ± 0.53 | 2.35 ± 0.18
IENLAKANPQYTVYSQASTMSIPV [PPP2R5C] | 2.8 ± 0.22 | 2.65 ± 0.25 |  | 
SSPGNNNGTSIEDGQIPEIIFYT [BTBD1] |  |  | 3.14 ± 0.46 | 3.44 ± 0.56
HEEERINIYCLNCEVPTCSLCKVF [TRIM55] | 2.95 ± 0.39 | 3.16 ± 0.32 |  | 
LPLPPPPPEPLSQVSMWDQRWQDH [APBB1IP] | 3.19 ± 0.78 | 3.54 ± 0.57 |  | 
PALAPVPRNSCITCPQCHRSLILD [TRIM9] | 3.31 ± 0.3 | 3.37 ± 0.33 |  | 
PQAFPMSRLWDSRLRHYLGSRYDA [DNAAF3] | 2.2 ± 0.47 | 2.51 ± 0.35 |  | 
KKVHKGTVPKNDADDESETPEELE [GLT8D2] | 5.49 ± 0.27 | 5.65 ± 0.093 |  | 
RRPHELLPVGGRLPGPTRPVLGRR [HAGHL] | 4.67 ± 0.16 | 4.92 ± 0.4 |  | 
IVDFLTHHAQTSKTERINALELLG [FEM1C] | 2.09 ± 0.14 | 2.18 ± 0.23 |  | 

Sequence | protein stability index [1] | protein stability index [2] | protein stability index [3] | protein stability index [4]
ITDNFCYFRHADPTWQNSIRHNLS [FOXJ1] | 2.32 ± 0.13 | 2.43 ± 0.17 |  | 
DATQEYKEKLQKCLEPLEQKLQEI [TRIM39] | 4.8 ± 0.055 | 5.02 ± 0.18 |  | 
ARGEDRAGPQSPSPGAPPAAKPAR [TSPAN10] | 5.1 ± 0.56 | 5.65 ± 0.097 |  | 
IASIGRHRYIAYMANQEAAIQAFL [IQUB] | 2.39 ± 0.73 | 2.17 ± 0.36 |  | 
DALNAYVCKGLPQHEEICLGLFTL [INTS3] | 2.81 ± 0.64 | 2.67 ± 0.74 |  | 
NKKNILLRLLREEEYVAPPRGPLP [TRAF3IP2] | 2.44 ± 0.25 | 3.06 ± 0.54 |  | 
QLDKNSEVYQEVQAMFDTLGIPKS [FAM98B] | 3.11 ± 0.69 | 3.66 ± 0.59 |  | 
RELGIRQRDEQLRALQERLGQQQR [FBF1] | 4.39 ± 0.14 | 4.42 ± 0.14 |  | 
WEYMHSPSENSKEAEILEVLRHPR [CPOX] | 3.99 ± 0.12 | 4.07 ± 0.32 |  | 
VLGGNLQGGELVVAYPYDLVRSPW [CPXM2] | 2.13 ± 0.12 | 2.48 ± 0.48 |  | 
SAQYSQQLQAARNEYLLNLVATNA [FCHSD1] | 2.71 ± 0.11 | 2.77 ± 0.18 |  | 
KALYETELADARRALDDTARERAK [LMNB1] | 5.191 ± 0.038 | 5.22 ± 0.26 |  | 
QIQKYTDCLQFYVNSTLKELRRLF [RTN1] | 2.73 ± 0.37 | 2.55 ± 0.31 |  | 
LELSCDKFPPEEELQREWLGNREA [CPN1] | 4.95 ± 0.25 | 5.11 ± 0.16 |  | 
DPEDFEDAWKRPDALPGQSKRLAV [TLE6] | 5.08 ± 0.18 | 4.83 ± 0.29 |  | 
GLKGRTLYPAVSAVWGQCQVRIRY [SPSB2] | 2.98 ± 0.77 | 2.67 ± 0.56 |  | 
REDSKEAEKSGEATDGARPQALPE [CHGA] | 5.64 ± 0.066 | 5.64 ± 0.17 |  | 
LAREGVAAFYKGYVPNMLGIIPYA [SLC25A25] | 2.42 ± 0.49 | 2.38 ± 0.27 |  | 
SIIAVAMQRGARLPAEVAGLSQVL [POMT2] | 2.35 ± 0.59 | 2.01 ± 0.18 |  | 
IYHLDGQETPYLVKLPLPAERVTL [DVL3] | 2.28 ± 0.24 | 2.34 ± 0.26 |  | 
KKIVHYTCFDQRKRANAAFLIGAY [CDC14A] | 2.37 ± 0.31 | 2.07 ± 0.83 |  | 
KWMLGAEDLTPEDDMPIGRNVLEL [PTPRD] | 3.9 ± 0.12 | 3.92 ± 0.44 |  | 
CGKSFTQSSGLIRHQRIHTGERPY [ZSCAN9] | 2.14 ± 0.034 | 2.25 ± 0.21 |  | 

Sequence | protein stability index [1] | protein stability index [2] | protein stability index [3] | protein stability index [4]
VPAQKFSALTFLRVDQDKDKDCSL [SMOC2] | 4.19 ± 0.3 | 4.52 ± 0.31 |  | 
LRPTLLLTSLHHFMHSRNLYILGN [PNLIPRP1] | 3.08 ± 0.31 | 3.13 ± 0.81 |  | 
IGSVEEQLAQLRCEMEQQSQEYQI [KRT16] | 4.82 ± 0.15 | 4.85 ± 0.18 |  | 
IARVADGLPLAASMQEDEQSGRDL [SEC22B] | 5.24 ± 0.22 | 5.33 ± 0.15 |  | 
HKLQEEKAFREEMKIFREKIEDFR [CCDC70] | 3.38 ± 0.3 | 3.61 ± 0.31 |  | 
MELPSGPGPERLFDSHRLPGDCFL [AUP1] | 3.36 ± 0.36 | 3.27 ± 0.35 |  | 
VELPIVDSLHPRPPYLPLAVPEDL [FUT8] | 4.24 ± 0.31 | 4.54 ± 0.22 |  | 
AVNAHQWLDNPERWNKVKMVVSRE [SEPHS2] | 3.02 ± 0.37 | 2.67 ± 0.3 |  | 
DKLDGNELDLSLSDLNEVPVKELA [LRRC59] | 5.26 ± 0.093 | 5.34 ± 0.33 |  | 
LELDDNLDTERPVQKRARSGPQPR [TRIB3] | 4.9 ± 0.38 | 5.11 ± 0.18 |  | 
KFSNIVDKFVIVDCRYPYEYEGGH [CDC25B] | 2.47 ± 0.16 | 2.25 ± 0.62 |  | 
IMSRVNAYQQGVGYQMLGNVVTIG [PHTF1] | 2.21 ± 0.48 | 2.31 ± 0.34 |  | 
KKPLAGSVDEQNALREVYAHAVLG [WEE1] | 3.43 ± 0.18 | 3.54 ± 0.52 |  | 
QGGEYLPKPEPPQLVLAYDYSREV [FEM1A] | 3.93 ± 0.23 | 4.12 ± 0.28 |  | 
SKDNMRTRIMIGLTLVFFVQITGQ [SLC2A12] | 2.55 ± 0.6 | 3.4 ± 0.17 |  | 
DTAEVYAAGKAEVVLGNIIKKKGW [KCNAB2] | 3.71 ± 0.21 | 3.86 ± 0.11 |  | 
NVEHYQELKKMVQQSDLGQYVTFL [ALG2] | 2.27 ± 0.12 | 2.43 ± 0.27 |  | 
CKRMDLVCQRMLNQGFLKVERYHN [FBXO28] | 2.38 ± 0.29 | 2.1 ± 0.16 |  | 
GTLDNSKSMKPYNYCSAYESFYES [NEUROD6] | 3.02 ± 0.41 | 3.12 ± 0.35 |  | 
FLVTMANIGINGNHSLETCETTLF [PTGFR] | 2.88 ± 0.88 | 2.5 ± 1.1 |  | 
